Experimental data from US10947270B2, “Targeted prodrug cytosine deaminase fusion carrier and application thereof” (National Yang-Ming University, priority 2015, dated 2021).
Positions count from the first letter of the chain named. Several values for one entry are separate records, joined by “and”; a condition that tells them apart may be missing. Equal entries are not always repeated.

B1: ^111In-DTPA-RGD4C-yCD: indium-111 labeled DTPA-RGD4C-yCD protein (conjugate)
chain: MACDCRGDCFCVTGGMASKWDQKGMDIAYEEAALGYKEGGVPIGGCLINNKDGSVLGRGHNMRFQKGSATLHGEISTLENCGRLEGKVYKDTTLYTTLSPCDMCTGAIIMYGIPRCVVGENVNFKSKGEKYLQTRGHEVVVVDDERCKKIMKQFIDERPQDWFEDIGELEHHHHHH
B2: RGD4C-EcCD_WT: targeted prodrug enzyme fusion protein (SEQ ID NO: 19) (protein)
chain: MGCDCRGDCFCMSNNALQTIINARLPGEEGLWQIHLQDGKISAIDAQSGVMPITENSLDAEQGLVIPPFVEPHIHLDTTQTAGQPNWNQSGTLFEGIERWAERKALLTHDDVKQRAWQTLKWQIANGIQHVRTHVDVSDATLTALKAMLEVKQEVAPWIDLQIVAFPQEGILSYPNGEALLEEALRLRADVVGAIPHFEFTREYGVESLHKTFALAQKYDRLIDVHCDEIDDEQSRFVETVAALAHHEGMGARVTASHTTAMHSYNGAYTSRLFRLLKMSGINFVANPLVNIHLQGRFDTYPKRRGITRVKEMLESGINVCFGHDDVFDPWYPLGTANMLQVLHMGLHVCQLMGYGQINDGLNLITHHSARTLNLQDYGIAAGNSANLIILPAENGFDALRRQVPVRYSVRGGKVIASTQPAQTTVYLEQPEAIDYKRLEHHHHHH
modifications: RGD4C_EcCD_WT
B3: RGD4C-EcCD_D314A: targeted prodrug enzyme fusion protein (SEQ ID NO: 20) (protein)
chain: B2 chain with D326A
modifications: RGD4C_EcCD_D314A

Columns and labels:
[1] = assay type: physicochemical
Method: The radiochemical purity of ^111In-DTPA-yCD and ^111In-DTPA-RGD4C-yCD are greater than 95% after marking and purification. Both are stored in HEPES buffer liquid (4° C.) for 48 hours, and the radiochemical purity is still higher than 85% (see FIG. 26). Both are placed in fetal bovine serum (37° C.) to simulate their stability in vivo. After 48 hours, the radiochemical purity of both is about 80%. It is shown that radioactive metal indium-111 is stably chelated on DTPA.

[2] = test system: HUVEC cells; assay: Competitive cell uptake with cRGDfk; assay type: cell-based, human; conditions: cRGDfk 1000-fold molar excess, 4 hours
Method: (§1) The uptake of ^111In-DTPA-yCD is low in the all three cell lines. […] The uptake amount of ^111In-DTPA-RGD4C-yCD by each cell strain is used as a control group, and analyzed by two sample t-test statistical methods, *P-value<0.05, **P-value<0.01, ***P-value<0.001, ****P-value<0.0001.
(§2) ^111In-DTPA-yCD and ^111In-DTPA-RGD4C-yCD (20 μCi/50 pmol/mL) are separately added to the 24-well plate of the seeded cells (2.5×10^5 cells/well) and cultured for 4 hours, and then the radioactivity of the cells and culture medium are separately measured, calculate the uptake amount of the drug by the cells (shown as % AD/10^6 cells).

[3] = test system: MCF-7 cells; assay: Competitive cell uptake with cRGDfk; assay type: cell-based, human; conditions: cRGDfk 1000-fold molar excess, 4 hours
Method: as §1, §2

[4] = test system: U87MG cells; assay: Competitive cell uptake with cRGDfk; assay type: cell-based, human; conditions: cRGDfk 1000-fold molar excess, 4 hours
Method: as §1, §2

[5] = test system: ES-2-luc cells; assay: Competitive cell uptake with cRGDfk; assay type: cell-based; conditions: cRGDfk 1000-fold molar excess, 4 hours
[6] = set-up: species or system nude mice; conditions: mouse, in vivo
Method: The arrow is marked as a tumor.
In in-vitro cell experiment, the binding ability of ^111In-DTPA-RGD4C-yCD and the integrin αvβ3 receptor on the cell membrane has been verified. In order to know whether the drug can show its target effect in vivo, integrin αvβ3 is seeded subcutaneously in the right side of nude mice. After the high-expression U87MG tumor cells are grown to 100 mm^3, 60-70 μCi (3-3.5 μg) of ^111In-DTPA-yCD and ^111In-DTPA-RGD4C-yCD are injected directly into the tumor, the images are collected by microSPECT/CT after 1, 4, 24, 48 hours. It can be seen from the image (see FIG. 31) that the drug retention in the ^111In-DTPA-RGD4C-yCD group (orange arrow) is better than that in the ^111In-DTPA-yCD, and the target ligand RGD4C is missing. ^111In-DTPA-yCD enters the systemic blood circulation system within 1 hour and is metabolized by normal organs. From FIG. 31, it can be seen that the kidney is the main metabolic organ of these two drugs. […] After 24-48 hours, the amount of accumulation in the tumor is running out. On the contrary, ^111In-DTPA-RGD4C-yCD is bound with integrin αvβ3 on tumor cells, then the ratio of drug entering the systemic blood circulation is reduced, and the metabolic rate is slow.

[7] = set-up: species or system nude mice; conditions: mouse, in vivo; remark: listed apart in the source
Method: ES-2-luc tumor nude mice is intraperitoneally injected with 50 μCi (2.5 μg) ^111In-DTPA-yCD and ^111In-DTPA-RGD4C-yCD for 1, 4 and 24 hours, then organs are collected and their radioactivity is measured to obtain biodistribution, as shown in Table 19 and Table 20. […] In addition to the part accumulated in the tumor, another part of the drug is absorbed back into the blood circulation system by the peritoneal blood vessels. […] The pancreatic radioactivity of the two drugs is observed after 1 hour of injection. The pancreatic radioactivity of ^111In-DTPA-RGD4C-yCD (8.06±0.88% ID/g) is higher than that of ^111In-DTPA-yCD (3.91±0.36% ID/g), it is suspected that tumor cells invade the pancreas.

[8] = Enzyme kinetic analysis of EcCD series fusion proteins, substrate 5-FC; assay type: biochemical
Description: (§3) FIGS. 11A-11D show the activity and kinetics analysis of EcCD series fusion protein enzymes, and the EcCD series proteins are combined with 5-FC at different concentrations for reaction. Respectively calculate the 5-FU formation reaction rate shown in FIG. 11A, 5-FC consumption reaction rate shown in FIG. 10B, uracil formation reaction rate shown in FIG. 10C and cytosine consumption reaction rate shown in FIG. 10D, substitute Michaelis-Menten formula, and calculate the base mass (Kcat) and Km value catalyzed by each mol enzyme in unit time.

[9] = Enzyme kinetic analysis of EcCD series fusion proteins, substrate cytosine; assay type: biochemical
Description: as §3, with “time. […]” for “time.”

[10] = Relative substrate selectivity of cytosine deaminase enzyme for 5-FC and cytosine (formula 1); assay type: biochemical; conditions: for [Kcat/Km(5-FC)]/{[Kcat/Km(cytosine)] + [Kcat/Km(5-FC)]}: relative substrate selectivity to 5-FC
Description: Evaluation of the relative substrate selectivity of cytosine deaminase enzyme for 5-FC and Cytosine can be expressed by the following formula 1,
The higher the value, the higher the selectivity of the enzyme to the 5-FC substrate.

[11] = target: αvβ3 integrin (Homo sapiens, UniProt P05106+P06756); assay: ELISA binding of EcCD series fusion protein and αvβ3 integrin
Chain of αvβ3 integrin (P06756 31-889 limits assumed): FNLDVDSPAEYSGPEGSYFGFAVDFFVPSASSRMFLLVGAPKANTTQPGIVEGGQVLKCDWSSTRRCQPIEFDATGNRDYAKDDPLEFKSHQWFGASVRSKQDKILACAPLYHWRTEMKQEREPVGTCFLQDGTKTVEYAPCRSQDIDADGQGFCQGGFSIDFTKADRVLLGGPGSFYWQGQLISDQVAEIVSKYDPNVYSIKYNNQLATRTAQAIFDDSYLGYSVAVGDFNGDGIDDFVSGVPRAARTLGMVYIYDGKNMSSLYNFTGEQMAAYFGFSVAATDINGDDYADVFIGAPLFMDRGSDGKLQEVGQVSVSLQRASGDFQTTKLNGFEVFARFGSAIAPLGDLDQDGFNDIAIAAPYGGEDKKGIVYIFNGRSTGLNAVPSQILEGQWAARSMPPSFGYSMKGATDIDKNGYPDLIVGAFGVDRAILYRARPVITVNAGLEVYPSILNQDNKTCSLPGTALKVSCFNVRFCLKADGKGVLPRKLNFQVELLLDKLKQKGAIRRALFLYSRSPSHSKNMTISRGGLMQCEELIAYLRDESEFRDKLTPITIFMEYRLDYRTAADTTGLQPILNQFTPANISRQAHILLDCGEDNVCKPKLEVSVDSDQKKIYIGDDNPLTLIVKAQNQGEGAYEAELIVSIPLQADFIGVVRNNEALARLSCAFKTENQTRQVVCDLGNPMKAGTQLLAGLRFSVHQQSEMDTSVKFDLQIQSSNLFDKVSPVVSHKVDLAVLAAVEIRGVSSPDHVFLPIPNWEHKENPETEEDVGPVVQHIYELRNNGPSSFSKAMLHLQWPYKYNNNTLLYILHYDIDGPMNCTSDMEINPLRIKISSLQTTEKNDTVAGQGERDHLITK
Chain of αvβ3 integrin (P06756 891-1048 partner limits assumed): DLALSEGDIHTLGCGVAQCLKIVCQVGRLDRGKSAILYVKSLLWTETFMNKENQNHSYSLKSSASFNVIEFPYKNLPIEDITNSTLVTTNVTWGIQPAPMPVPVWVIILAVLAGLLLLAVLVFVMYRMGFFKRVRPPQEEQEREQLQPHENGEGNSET
Chain of αvβ3 integrin (P05106 27-788): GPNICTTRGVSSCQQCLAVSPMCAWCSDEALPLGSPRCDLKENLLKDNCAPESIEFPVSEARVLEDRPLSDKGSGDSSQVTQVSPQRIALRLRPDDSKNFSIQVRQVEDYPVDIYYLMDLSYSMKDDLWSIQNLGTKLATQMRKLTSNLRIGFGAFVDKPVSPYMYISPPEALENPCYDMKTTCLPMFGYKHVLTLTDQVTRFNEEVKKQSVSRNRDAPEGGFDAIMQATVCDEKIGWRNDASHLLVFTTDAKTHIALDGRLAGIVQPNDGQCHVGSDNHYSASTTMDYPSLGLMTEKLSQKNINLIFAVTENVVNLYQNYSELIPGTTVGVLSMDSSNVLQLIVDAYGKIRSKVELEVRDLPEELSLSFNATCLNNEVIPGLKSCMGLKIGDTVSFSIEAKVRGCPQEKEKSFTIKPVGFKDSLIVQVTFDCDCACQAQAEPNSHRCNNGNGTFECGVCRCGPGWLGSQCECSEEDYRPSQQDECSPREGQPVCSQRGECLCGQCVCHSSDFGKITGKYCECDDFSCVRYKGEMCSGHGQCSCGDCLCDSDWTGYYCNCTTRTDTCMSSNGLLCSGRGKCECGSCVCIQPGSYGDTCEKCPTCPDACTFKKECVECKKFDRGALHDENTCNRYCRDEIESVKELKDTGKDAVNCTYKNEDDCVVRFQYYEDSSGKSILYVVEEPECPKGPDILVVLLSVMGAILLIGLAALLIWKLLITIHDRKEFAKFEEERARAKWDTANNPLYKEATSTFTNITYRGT
Description: FIGS. 13A-13B show the binding activity and specificity test of EcCD fusion protein and αvβ3 integrin receptor. […] (***compared with untreated RGDfv group, P value<0.001, indicating a statistically significant difference)
To confirm the binding ability of RGD4C peptide and αvβ3 integrin, the affinity of the protein and αvβ3 integrin is confirmed by ELISA method. […] This experiment confirms that RGD4C-EcCD_WT and RGD4C-EcCD_D314A have the binding activity of αvβ3 integrin, and this binding has the specificity of RGD4C peptide αvβ3 integrin.

[12] = test system: U87MG, HUVEC cells; assay: RGDfv peptide competition of EcCD fusion protein binding to cells; assay type: cell-based, human; conditions: RGDfv peptide at 10-fold relative concentration
Method: FIGS. 14A-14E show the binding activity and specificity test of EcCD fusion protein and U87MG, HUVEC and MCF-7 cell strain. […] (***compared to the untreated RGDfv group, P value<0.001, indicating a statistically significant difference)
It is confirmed from the above experimental results that the EcCD series protein fused to the RGD4C peptide has the binding activity with the expressing αvβ3 integrin cell strain, and the binding has the specificity of the RGD4C peptide and αvβ3 integrin of the cell expression, and also confirmed that the D314A mutation will not affect the binding activity of the RGD4C peptide and αvβ3 integrin.

[13] = test system: U87MG, HUVEC and MCF-7 cells; assay: Immunofluorescence of binding and distribution of EcCD fusion proteins in cells; assay type: cell-based, human; conditions: 37° C., 2 hours
Method: FIGS. 15A-15C show the binding and distribution of EcCD fusion proteins in U87MG, HUVEC and MCF-7 cell strain. The immunofluorescence staining is used to observe and experiment the EcCD fusion protein, which are respectively acted with U87MG cells in FIG. 15A, HUVEC cells in FIG. 15B and MCF-7 cells in FIG. 15C for 2 hours at 37° C., then fixed with 2% para-formadehyde, the fixed cells are first permeabilized with 0.1% Triton X-100 for 10 minutes, after that, cultured with 1% BSA blocking (dissolved in PBS containing Ca^2+, Mg^2+) for 1 hour at room temperature, then add a 1st antibody (Rabbit anti-His^6tag, Mouse anti-human CD51/61αvβ3 integrin), and then add a 2nd antibody (Anti-rabbit IgG-CF640R, Anti-mouse IgG-Alexa488), the protein distribution is observed by conjugated fluorescence microscope. (Green signal: αvβ3 integrin; red signal: anti-His^6tag; blue signal: Hoechst 33342 cell nucleus stain) (Scale bars: 20 μm)
Immunofluorescence is used to observe the distribution of the protein bound with cell in the cell. U87MG, HUVEC and MCF-7 cells act with culture medium containing EcCD_WT, RGD4C-EcCD_WT, EcCD_D314A and RGD4C-EcCD_D314A proteins at 37° C. for 2 hours, stain the cell, and observe protein distribution by the conjugated fluorescence microscopy.

[14] = 5-FC consumption (Table 5), listed as RGD4C-EcCDWT
[15] = 5-FU generation, listed as RGD4C-EcCDWT
[16] = cytosine consumption, listed as RGD4C-EcCDWT
[17] = uracil generation, listed as RGD4C-EcCDWT
[18] = RGDfv peptide at 10-fold concentration
[19] = RGDfv peptide at same concentration

| inhibition of binding capacity by RGDfv peptide [11, 18] | inhibition of binding capacity by RGDfv peptide [11, 19] | Molecule | Kcat ([8]; 5-FC consumption (Table 5)) | Km ([8]; 5-FC consumption (Table 5)) [µM] | Kcat ([8]; 5-FU generation) | Km ([8]; 5-FU generation) | Kcat ([9]; cytosine consumption) [s⁻¹] | Km ([9]; cytosine consumption) | Kcat ([9]; uracil generation) [s⁻¹] | Km ([9]; uracil generation) [µM] | [Kcat/Km(5-FC)]/{[Kcat/Km(cytosine)] + [Kcat/Km(5-FC)]} [10] | inhibition of binding by RGDfv peptide competition [12] | binding with cells [13] | internalization [13] | further results |
| --- | --- | --- | --- | --- | --- | --- | --- | --- | --- | --- | --- | --- | --- | --- | --- |
|  |  | B1 |  |  |  |  |  |  |  |  |  |  |  |  | radiochemical purity after incubation [1]: about 80%; decrease of cell uptake by cRGDfk [2]: about 65%; decrease of cell uptake by cRGDfk [3]: ~45%; decrease of cell uptake by cRGDfk [4]: ~55%; decrease of cell uptake by cRGDfk [5]: about 70%; accumulation in the tumor [6]: considerable drug accumulation in the tumor; radioactivity in the peritoneal cavity reduced to (fraction of 1 hour value) [7]: ¼; radioactivity in tumor higher than that of ^111In-DTPA-yCD [7]: approximately 3 times |
| about 80% | about 30% | B2 | 10.7 ± 0.5 s⁻¹ | 2300 ± 400 | 10.8 ± 0.6 s⁻¹ | 2300 ± 500 µM | 148.9 ± 4.7 | 1700 ± 200 µM | 141.7 ± 5.5 | 1500 ± 200 | 0.047 | about 50% | have the ability of binding with U87MG and HUVEC cells | will enter the internalization | Kcat [8, 14]: 10.9 ± 0.5 s⁻¹; Km [8, 14]: 2400 ± 400 µM; Kcat [8, 15]: 10.8 ± 0.5 s⁻¹; Km [8, 15]: 2400 ± 500 µM; Kcat [9, 16]: 143.9 ± 5.1 s⁻¹; Km [9, 16]: 1600 ± 200 µM; Kcat [9, 17]: 150.8 ± 4.4 s⁻¹; Km [9, 17]: 1700 ± 100 µM; [Kcat/Km(5-FC)]/{[Kcat/Km(cytosine)] + [Kcat/Km(5-FC)]} ([10]; listed as RGD4C- EcCDWT): 0.048 |
| about 80% | about 30% | B3 | 38.6 ± 1.0 s⁻¹ and 39.1 ± 1.0 s⁻¹ | 3500 ± 200 | 39.4 ± 1.1 s⁻¹ and 38.4 ± 0.8 s⁻¹ | 3500 µM and 3400 µM | 17.7 ± 1.3 | 3000 µM and 2900 µM | 21.7 ± 4.8 | 3800 ± 1700 | 0.648 | about 50% | have the ability of binding with U87MG and HUVEC cells | will enter the internalization | Kcat/Km higher than that of the corresponding WT protein ([8]; substrate 5-FC): about 2.4 times; Kcat/Km lower than that of the corresponding WT protein ([9]; substrate cytosine): about 15.5 times; relative substrate selectivity to 5-FC higher than the corresponding WT protein [10]: about 13.8 times; [Kcat/Km(5-FC)]/{[Kcat/Km(cytosine)] + [Kcat/Km(5-FC)]} ([10]; listed as RGD4C- EcCD_D314A): 0.664 |
